According to the supplement of paper PMC7877785:
± gives the uncertainty stated by the source.

Experiment: self-splicing fitness, log relative to wild type (ln ratio); higher = more splicing; Tetrahymena group I intron in knt gene, E. coli kanamycin selection, DiMSum; sequences stand for … in CUCUCU…GGAGGGAAAAGUUAUCAGGCAUGCACCUGGUAGCUAGUCUUUAAACCAAUAGAUUGCAUCGGUUUAAAAGGCAAGACCGUCAAAUUGCGGGAAAGGGGUCAACAGCCGUUCAGUACCAAGUCUCAGGGGAAACUUUGAGAUGGCCUUGCAAAGGGUAUGGUAAUAAGCUGACGGACAUGGUCCUAACCACGCAGCCAAGUCCUAAGUCAACAGAUCUUCUGUUGAUAUGGAUGCAGUUCACAGACUAAAUGUCGGUCGGGGAAGAUGUAUUCUUCUCAUAAGAUAUAGUCGGACCUCUCCUUAAUGGGAGCUAGCGGAUGAAGUGAUGCAACACUGGAGCCGCUGGGAACUAAUUUGUAUGCGAAAGUAUAUUGAUUAGUUUUGGAGUACUCGUGGUCG
In short: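 Six replicate transformations of E. coli BL21(DE3) with a pET-22b(+) library were grown overnight at 37°C or 30°C. The library randomised all eight P1ex-region intron nucleotides, the intron lying in the knt kanamycin-resistance gene, and plates were LB agar with or without 25 μg/mL kanamycin plus 100 μg/mL carbenicillin, 50 μM IPTG and 0.2% rhamnose. Pooled colonies were amplicon-sequenced on an Illumina HiSeq 2500, and fitness is the DiMSum error-weighted combination of wild-type-normalised replicate fold changes, kanamycin versus none.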

Sequence | self-splicing fitness (ln) (30 °C) | self-splicing fitness (ln) (37 °C)
CAGUAGCAAUAUUACGGCAC | -2.42 ± 0.21 | -2.06 ± 0.25
AUCUAGCAAUAUUACGAUGU | -0.781 ± 0.08 | -0.0281 ± 0.11
GGUGAGCAAUAUUACGACAC | -0.5 ± 0.18 | 0.114 ± 0.22
CAUAAGCAAUAUUACGAUCG | -0.428 ± 0.1 | -0.532 ± 0.11
AACCAGCAAUAUUACGAGGC | -3.43 ± 0.23 | -2.2 ± 0.18
UUGCAGCAAUAUUACGUCAG | -0.419 ± 0.11 | 0.42 ± 0.14
ACUGAGCAAUAUUACGUGUU | -4.1 ± 0.15 | -2.25 ± 0.11
UCUAAGCAAUAUUACGACCG | -0.676 ± 0.14 | -0.00302 ± 0.22
AUCAAGCAAUAUUACGCCCC | -1.45 ± 0.3 | 0.787 ± 0.27
AAACAGCAAUAUUACGAGUC | -3.55 ± 0.14 | -2.38 ± 0.14
UUAGAGCAAUAUUACGGUGU | -2.05 ± 0.35 | -2.19 ± 0.3
UAGCAGCAAUAUUACGUAAG | -1.91 ± 0.078 | -0.435 ± 0.091
AUGGAGCAAUAUUACGGAUG |  | -2.29 ± 0.37
AGGAAGCAAUAUUACGGUUA | -0.766 ± 0.1 | -0.654 ± 0.1
UCGUAGCAAUAUUACGGGAA | -1.71 ± 0.2 | -1.06 ± 0.16
CCGAAGCAAUAUUACGUUCG | -3.33 ± 0.13 | -1.26 ± 0.11
GGCGAGCAAUAUUACGUGAG | -3.25 ± 0.18 | -2.57 ± 0.2
CUCGAGCAAUAUUACGACAC | -2.69 ± 0.27 | 
GUACAGCAAUAUUACGGGUG | -2.02 ± 0.098 | -1.67 ± 0.13
ACGCAGCAAUAUUACGCAAC | -3.91 ± 0.32 | -1.83 ± 0.18
AUGGAGCAAUAUUACGUAAC | -2.91 ± 0.34 | -2.29 ± 0.46
CUUUAGCAAUAUUACGGAGG | -1.75 ± 0.15 | -1.29 ± 0.19

Sequence | self-splicing fitness (ln) (30 °C) | self-splicing fitness (ln) (37 °C)
AUGGAGCAAUAUUACGUUGG | -4.65 ± 0.39 | -2.35 ± 0.23
CGUCAGCAAUAUUACGAAGU | -3.92 ± 0.19 | -2.94 ± 0.21
CUGAAGCAAUAUUACGGUGA | -4.38 ± 0.31 | -2.6 ± 0.21
GCUAAGCAAUAUUACGGACA | -1.35 ± 0.12 | -1.17 ± 0.12
CAGAAGCAAUAUUACGUUGC | -4.27 ± 0.26 | -2.74 ± 0.25
UGGAAGCAAUAUUACGAAAU | -3.52 ± 0.29 | -2.27 ± 0.22
GUCAAGCAAUAUUACGCGAG | -1.83 ± 0.11 | -1.36 ± 0.12
CCGGAGCAAUAUUACGAUAG | -0.959 ± 0.07 | -0.152 ± 0.081
UUGGAGCAAUAUUACGUAUC | -2.95 ± 0.2 | 
AGGGAGCAAUAUUACGAUCA |  | -1.5 ± 0.4
CGACAGCAAUAUUACGUAAA | -3.02 ± 0.15 | -2.28 ± 0.21
UUUCAGCAAUAUUACGAGGG | -3.94 ± 0.25 | -1.02 ± 0.13
GGGGAGCAAUAUUACGCCAC | -3.28 ± 0.27 | -3.39 ± 0.39
GUUGAGCAAUAUUACGGUUC | -3.63 ± 0.4 | -1.58 ± 0.26
CUGAAGCAAUAUUACGUCAA | -1.2 ± 0.065 | -0.435 ± 0.084
AUGGAGCAAUAUUACGUCCU | -0.886 ± 0.24 | -1.35 ± 0.29
CUGAAGCAAUAUUACGAGAC | -0.346 ± 0.11 | 0.35 ± 0.15
UCCGAGCAAUAUUACGCCAC | -2.05 ± 0.4 | 
CGACAGCAAUAUUACGUUCG | -2.52 ± 0.15 | -2.18 ± 0.22
ACGCAGCAAUAUUACGAGUC | -4.93 ± 0.27 | -2.26 ± 0.18
CCCUAGCAAUAUUACGCCUU | -3.23 ± 0.16 | -3.08 ± 0.4
